# B1: His-GLUD1^K84R (enzyme)
# chain: not shown
# Molecular target: the molecule itself
# Test: cross-linking
protein,measurement,value
B1,stoichiometry N,6
